Among the data in patent publication US20060264369, “Aptamers to von Willebrand Factor and their use as thrombotic disease therapeutics” (published 2006) are Kd and IC50 values, retold here.

The target of series [1] is T1, von Willebrand factor full length (Homo sapiens, UniProt P04275 SEQ:764-2813). The experiment in a line: filter; 56% bound at 100 nM vWF. As to conditions: tags: Calbiochem 681300; label: 5'-32P. The protocol: (§1) For KD determination, chemically synthesized aptamers were purified using denaturing polyacrylamide gel electrophoresis, 5′end labeled with γ-³²P ATP and were tested for direct binding to full length human vWF (Calbiochem Cat.# 681300, La Jolla, Calif.). An 8 point protein titration was used in the dot blot binding assay (100 nM, 30 nM, 10 nM, 3 nM, 1 nM, 300 pM, 100 pM, 0 pM)) in 1× Dulbecco's PBS containing […] (final volume of 50 uL) for 30 minutes at room temperature. KD values were calculated by fitting the equation y=(max/(1+K/protein))+yint using KaleidaGraph (KaleidaGraph v. 3.51, Synergy Software).

Series [2] deals with T1, von Willebrand factor full length. The experiment in a line: filter; 16% bound at 100 nM vWF. As to conditions: tags: Calbiochem 681300; label: 5'-32P. Here is the method: as §1
The target is the same in series [3]. The experiment in a line: filter; 44% bound at 100 nM. Particulars: tags: Calbiochem 681300. Here is the method: as §1
Series [4] has the same target. Nature of the series: filter; 43% bound at 100 nM vWF. Particulars: tags: Calbiochem 681300; label: 5'-32P. The protocol: as §1
Series [5] shares this target. The experiment in a line: filter; only 2% bound at 100 nM vWF. As to conditions: tags: Calbiochem 681300; label: 5'-32P. The protocol:
as §1

For series [6] the target is unchanged. Nature of the series: filter; 39% bound at 100 nM vWF. As to conditions: tags: Calbiochem 681300; label: 5'-32P. The protocol:
as §1

Series [7] has the same target. The experiment in a line: filter; 42% bound at 100 nM. Particulars: tags: Calbiochem 681300. Here is the method: as §1
Series [8] has the same target. Nature of the series: filter; 47% bound at 100 nM vWF. As to conditions: tags: Calbiochem 681300; label: 5'-32P. The protocol:
as §1

The target is the same in series [9]. The experiment in a line: filter; 55% bound at 100 nM. As to conditions: tags: Calbiochem 681300. The protocol: as §1
Series [10] has the same target. The experiment in a line: filter; 33% bound at 100 nM. As to conditions: tags: Calbiochem 681300. The protocol: as §1
Series [11] has the same target. Nature of the series: filter; 18% bound at 100 nM vWF. As to conditions: tags: Calbiochem 681300; label: 5'-32P. Here is the method:
as §1

Series [12] shares this target. The experiment in a line: filter; 47% bound at 100 nM. As to conditions: tags: Calbiochem 681300. The protocol:
as §1

For series [13] the target is unchanged. Nature of the series: filter; 9% bound at 100 nM vWF. As to conditions: tags: Calbiochem 681300; label: 5'-32P. The protocol:
as §1

For series [14] the target is unchanged. Nature of the series: filter; 23% bound at 100 nM vWF. Particulars: tags: Calbiochem 681300; label: 5'-32P. Here is the method:
as §1

Series [15] has the same target. The experiment in a line: filter; 32% bound at 100 nM. As to conditions: tags: Calbiochem 681300. The protocol:
as §1

The target is the same in series [16]. Nature of the series: filter; 51% bound at 100 nM. Particulars: tags: Calbiochem 681300. Here is the method: as §1
Series [17] shares this target. The experiment in a line: flow; range 1.3-370 nM. As to conditions: tags: Calbiochem 681300. Here is the method:
Aptamer potency to block human vWF binding to lyophilized platelets was assessed by flow cytometric analysis. Titrations of aptamers (0 nM, 0.1 nM to 1000 nM) were pre-incubated briefly with 5 nM of full length human vWF in FACS buffer (PBS plus 0.5% bovine serum albumin) at room temperature in a volume of 50 uL. Another 50 uL containing 5 uL of lyophilized platelets plus 1 uL of 0.1 U/uL of botrocetin in FACS buffer was added to aptamer/vWF. This reaction was allowed to proceed for 15 minutes at 37 degrees C. after which 200 uL of FACS buffer was added. […] The pellets were resuspended in 100 uL of FACS buffer containing a 1:100 dilution of anti-vWF antibody and were incubated at room temperature for 30 minutes. […] The pellets were resuspended in a 1:100 solution of anti-IgG2a-FITC antibody and were incubated in the dark for 30 minutes at room temperature. The entire 100 uL was diluted into 200 uL of FACS buffer and analyzed immediately by flow cytometric analysis in the FACSCAN. […] Mean fluorescent intensity (“MFI”) readings were quantified for each sample analyzed by flow cytometry. […] IC₅₀ values were determined by fitting the percent inhibition of vWF binding to platelets as a function of aptamer concentration to the equation: % inhibition=% inhibitionₘₐₓ/(1+IC₅₀/aptamer conc.)

Series [18] has the same target. The experiment in a line: filter; 51% bound at 100 nM vWF. Particulars: tags: Calbiochem 681300; label: 5'-32P. The protocol:
as §1

Series [19] shares this target. Nature of the series: filter; 38.2% bound at 100 nM vWF. As to conditions: tags: Calbiochem 681300; label: 5'-32P. The protocol: as §1
For series [20] the target is unchanged. Nature of the series: filter; 26.5% bound at 100 nM vWF. Particulars: tags: Calbiochem 681300; label: 5'-32P. Here is the method: as §1
Series [21] has the same target. The experiment in a line: filter; 38.5% bound at 100 nM vWF. As to conditions: tags: Calbiochem 681300; label: 5'-32P. The protocol:
as §1

For series [22] the target is unchanged. Nature of the series: filter; 29.0% bound at 100 nM vWF. As to conditions: tags: Calbiochem 681300; label: 5'-32P. Here is the method: as §1
For series [23] the target is unchanged. The experiment in a line: filter; 33% bound at 100 nM vWF. Particulars: tags: Calbiochem 681300; label: 5'-32P. Here is the method: as §1
The target is the same in series [24]. Nature of the series: filter; 17% bound at 100 nM vWF. Particulars: tags: Calbiochem 681300; label: 5'-32P. Here is the method:
as §1

The target is the same in series [25]. Nature of the series: filter; 29% bound at 100 nM vWF. As to conditions: tags: Calbiochem 681300; label: 5'-32P. The protocol: as §1
Series [26] shares this target. Nature of the series: filter; 22.6% bound at 100 nM vWF. Particulars: tags: Calbiochem 681300; label: 5'-32P. The protocol:
as §1

The target is the same in series [27]. The experiment in a line: filter; 19.2% bound at 100 nM vWF. Particulars: tags: Calbiochem 681300; label: 5'-32P. The protocol: as §1

GGCGTGCAGTGCCTTCGGCCGTGCGGTGCCTCCGTCACGCC (ssDNA, 2'-OMe G9, 3'-idT) [ARC1202]: the Kd (as a rule, the constant that tells how readily two partners part at equilibrium) in [1] was determined as 0.4 nM.
As for GGCGTGCAGTGCCTTCGGCCGTGCGGTGCCTCCGTCACGCC (ssDNA, 2'-OMe C32, 3'-idT) [ARC1225], the Kd in [2] is 11 nM.
Regarding GGCGTGCAGTGCCTTCGGCCGTGCGGTGCCTCCGTCACGCC (ssDNA, 2'-OMe at 16; 3'-idT) [ARC1209], the Kd in series [3] stood at 2 nM.
Regarding GGCGTGCAGTGCCTTCGGCCGTGCGGTGCCUCCGUCACGCC (mixed, 2'-OMe at 23, 28, 29, 31, 34-36, 3'-idT) [ARC1340], the Kd in series [4] was 7.4 nM.
For GGCGTGCAGTGCCTTCGGCCGTGCGGTGCCTCCGTCACGCC (ssDNA, 2'-OMe G25, 3'-idT) [ARC1218], the Kd in series [5] worked out at 32 nM.
Consider GGCGTGCAGUGCCTTCGGCCGTGCGGTGCCTCCGUCACGCC (mixed, 2'-OMe at 9, 10, 21, 23, 34-36, 3'-idT) [ARC1339], for which, in series [6], the Kd amounted to 2.4 nM.
In the case of GGCGTGCAGTGCCTTCGGCCGTGCGGTGCCTCCGTCACGCC (ssDNA, 2'-OMe at 41; 3'-idT) [ARC1234], the Kd in series [7] is 2 nM.
GGCGTGCAGTGCCTTCGGCCGTGCGGTGCCUCCGTCACGCC (ssDNA, 2'-OMe U31, 3'-idT) [ARC1224]: in [8], the equilibrium dissociation constant (Kd) was determined as 0.5 nM.
Turning to GGCGTGCAGTGCCTTCGGCCGTGCGGTGCCTCCGTCACGCC (ssDNA, 2'-OMe at 2; 3'-idT) [ARC1195], the Kd in [9] came to 1 nM.
Turning to GGCGTGCAGTGCCTTCGGCCGTGCGGTGCCTCCGTCACGCC (ssDNA, 2'-OMe at 26; 3'-idT) [ARC1219], the Kd in [10] is 3 nM.
As to GGCGTGCAGTGCCTTCGGCCGTGCGGTGCCTCCGTCACGCC (ssDNA, 2'-OMe C24, 3'-idT) [ARC1217], the Kd in series [11] was found to be 14 nM.
Take GGCGTGCAGTGCCTTCGGCCGTGCGGTGCCTCCGTCACGCC (ssDNA, 2'-OMe at 18; 3'-idT) [ARC1211]: the Kd in series [12] is 2 nM.
Regarding GGCGUGCAGTGCCTTCGGCCGTGCGGTGCCTCCGTCACGCC (mixed, 2'-OMe at 1-6 and 36-41, 3'-idT) [ARC1237], in series [13], the Kd is 41 nM.
In the case of GGCGTGCAGTGCCTTCGGCCGTGCGGTGCCTCCGTCACGCC (mixed, 2'-OMe G1 G2 G4 G6 A37 G39, 3'-idT) [ARC1235], the Kd in series [14] was 13 nM.
As to GGCGUGCAGTGCCTTCGGCCGTGCGGTGCCTCCGTCACGCC (ssDNA, 2'-OMe at 3,5,36,38,40,41; 3'-idT) [ARC1236], in [15], the dissociation constant (Kd) was found to be 3 nM.
For GGCGTGCAGTGCCTTCGGCCGTGCGGTGCCTCCGTCACGCC (ssDNA, 2'-OMe at 39; 3'-idT) [ARC1232], the Kd in series [16] stood at 1 nM.
In the case of GGAGCCACACGACATTGGCGCGAGAGCGCATGGCTCC (mixed, ribo purines, deoxy pyrimidines) [rRdY minimer SEQ 201], in series [17], half-maximal inhibition (IC50) was put at 150 nM.
In the case of GCGUGCAGUGCCUUCGGCCGTGCGGTGCCUCCGUCACGC (mixed, 2'-OMe/deoxy composite, 3'-idT) [ARC1346], in series [18], the Kd stood at 11 nM.
On to GCGUGCAGUGCCUUCGGCCGTGCGGTGCCUCCGUCACGC (mixed, 2'-OMe/deoxy composite, single PS between mG20 and dT21, 3'-idT) [ARC1368], for which the Kd in [19] came out at 1.8 nM.
For the molecule GCGUGCAGUGCCUUCGGCCGTGCGGTGCCUCCGUCACGC (mixed, 2'-OMe/deoxy composite, single PS between mG20 and dT21, 3'-idT) [ARC1524], the Kd in [20] was 5.7 nM.
With GCGUGCAGUGCCUUCGGCCGTGCGGTGCCUCCGUCACGC (mixed, 2'-OMe/deoxy composite, 3'-idT) [ARC1361], the Kd in [21] came to 7.9 nM.
Consider GCGUGCAGUGCCUUUGGCCGTGCGGTGCCUCCGUCACGC (mixed, 2'-OMe/deoxy composite, single PS, 3'-idT) [ARC1526], for which the Kd in [22] was found to be 47 nM.
Regarding GGCGUGCAGUGCCUUCGGCCGTGCGGTGCCUCCGUCACGCC (mixed, 2'-OMe/deoxy composite as printed in Table 22, 3'-idT) [ARC1342], in [23], the Kd was 15.6 nM.
With GGCGUGCAGUGCCUUCGGCCGTGCGGTGCCUCCGUCACGCC (mixed, 2'-OMe/deoxy composite with multiple PS as printed in Table 22, 3'-idT) [ARC1344], the Kd in [24] stood at 4.8 nM.

B1: ARC1345 (mixed)
mixed: GGCGUGCAGUGCCUUCGGCCGTGCGGTGCCUCCGUCACGCC
modifications: 2'-OMe/deoxy composite with PS 5' of the deoxy residues as printed in Table 22, 3'-idT
Turning to B1, the Kd in series [25] turned out to be 12.1 nM.
Turning to CGUGCAGUGCCUUCGGCCGTGCGGTGCCUCCGUCACG (mixed, 2'-OMe/deoxy composite, single PS, 3'-idT) [ARC1529], the Kd in series [26] turned out to be 12.3 nM.
Consider CGUGCAGUGCCUUUGGCCGTGCGGTGCCUCCGUCACG (mixed, 2'-OMe/deoxy composite, single PS, 3'-idT) [ARC1530], for which the Kd in series [27] was 15 nM.
